B1: zebrafish RAG1 (271–1031) (domain or fragment, UniProt O13033 271-1031, looked up)
chain: RCQRDHLSTKLIPTEVPADLIRAVTCQVCDHLLSDPVQSPCRHLFCRLCIIRYTHALGPNCPTCNQHLNPSHLIKPAKFFLATLSSLPLLCPSEECSDWVRLDSFREHCLNHYREKESQEEQTPSEQNLDGYLPVNKGGRPRQHLLSLTRRAQKHRLRDLKNQVKTFAEKEEGGDVKSVCLTLFLLALRAGNEHKQADELEAMMQGRGFGLHPAVCLAIRVNTFLSCSQYHKMYRTVKATSGRQIFQPLHTLRNAEKELLPGFHQFEWQPALKNVSTSWDVGIIDGLSGWTVSVDDVPADTISRRFRYDVALVSALKDLEEDIMEGLRERALDDSMCTSGFTVVVKESCDGMGDVSEKHGSGPAVPEKAVRFSFTIMSISIRLEGEDDGITIFQEQKPNSELSCRPLCLMFVDESDHETLTAILGPVVAERKAMMESRLIISVGGLLRSFRFFFRGTGYDEKMVREMEGLEASGSTYICTLCDSTRAEASQNMVLHSITRSHDENLERYEIWRKNPFSESADELRDRVKGVSAKPFMETQPTLDALHCDIGNATEFYKIFQDEIGEVYQKPNPSREERRRWRSTLDKQLRKKMKLKPVMRMNGNYARRLMTREAVEAVCELVPSEERREALLKLMDLYLQMKPVWRSTCPSRDCPDQLCQYSYNSQQFADLLSSMFKYRYDGKITNYLHKTLAHVPEIVERDGSIGAWASEGNESGNKLFRRFRKMNARQSKTFELEDILKHHWLYTSKYLQKFMEAHKNS

Key:
cryo-EM structure = target: the molecule itself; experiment: cryo-EM structure
[1] = target: B1; experiment: cryo-EM structure

binding result [1] | Binder | stoichiometry N (cryo-EM structure)
 | B1 | 2
binds | full-length zebrafish RAG2 (natural protein, UniProt O13034 1-530, looked up) MSLQPLTAVNCGSLVQPGFSLLDLEGDVYLFGQKGWPKRSCPTGIFGVRIKKGELKLRAISFSNNSSYLPPLRCPAIAHFEAQDGKPECYLIHGGRTPNNELSSSLYMLSVDSRGCNRKVTLRCEEKELVGDVPSARYGHTLSVINSRGKTACVLFGGRSYMPPTERTTQNWNSVGDCPPQVYLIDLEFGCCTAHTLPELTDGQSFHVALARQDCVYFLGGHILSSDCRPSRLIRLHVELLLGSPVLTCTILHEGLTITSAIASPIGYHEYIIFGGYQSETQKRMECTYVGLDDVGVHMESREPPQWTSEISHSRTWFGGSLGKGTALVAIPSEGNPTPPEAYHFYQVSFQKEQDGEATAQGCSQESTDFEDSAPLEDSEELYFGREPHELEYSSDVEGDTYNEEDEEDESQTGYWIKCCLSCQVDPNIWEPYYSTELTRPAMIFCSRGEGGHWVHAQCMELPESLLLQLSQDNSKYFCLDHGGLPKQEMTPPKQMLPVKRVPMKMTHRKAPVSLKMTPAKKTFLRRLFD | 

Source: paper PMC4690471 (Cell, 2015)
